The nature of the data set: protein stability index of a GFP-peptide fusion (GPS, HEK-293T) (PSI 1-6); higher = more stable.
The mark [1] stands for this setting: treatment: DMSO, c terminus: a fixed tail appended.
Where [2] appears, read: treatment: MLN4924 1 uM, 8 h, c terminus: a fixed tail appended.
[3] abbreviates: treatment: DMSO, c terminus: native.
Where [4] appears, read: treatment: MLN4924 1 uM, 8 h, c terminus: native.

72 sequences from the supplement of paper PMC10567573 can be followed below.

± gives the standard deviation.
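Further: 24-mer peptide tiles fused after GFP, lentivirally expressed, FACS-sorted into six equal bins by GFP/DsRed ratio, decoded by Illumina sequencing, PSI is the read-weighted mean bin number.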

For the sequence NEPSINFYKRRGASDLSSEEGWRL [SAT1], the protein stability index stood at 3.69 ± 0.4 under setting [1] and 3.84 ± 0.17 under setting [2].

With RLEREERNQTQVLRQQQDEAYLAS [FAF2], the protein stability index by setting is: under setting [1], 4.96 ± 0.21; under setting [2], 5 ± 0.15.

As to MQIEFIKQGSMNFRFIPVLFPNAK [TRAF3IP2], the protein stability index is, setting by setting: under setting [1], 2.96 ± 0.71; under setting [2], 2.45 ± 0.58.

Consider STLLGEMDLLTQSLGVDTLPPPDP [APBB1IP], for which the protein stability index by setting is: under setting [1], 3.79 ± 0.42; under setting [2], 4.03 ± 0.41.

Consider RYFPAGNVVNEGFFEENVLPPKK [GLIPR2], for which the protein stability index under setting [3] worked out at 4.72 ± 0.066 and the protein stability index under setting [4] came to 4.59 ± 0.38.

In the case of PDLESGSESGADTISVNQTRVNLS [DLC1], the protein stability index turned out to be 5.12 ± 0.26 under setting [1] and 5.16 ± 0.2 under setting [2].

The sequence VLLGEPLVVMAPSPSESSETVLAL [DENND6A] gave a protein stability index under setting [1] of 2.82 ± 0.36 and a protein stability index under setting [2] of 2.52 ± 0.34.

Take IIHEAGYSEEECKQYKAVVYSNTI [GNAI1]: the protein stability index by setting is: under setting [1], 2.81 ± 0.04; under setting [2], 2.77 ± 0.45.

YVDIQGLTASTMEILLDFVYTETV [KLHL12] returned a protein stability index under setting [1] of 3.564 ± 0.008 and a protein stability index under setting [2] of 3.1 ± 1.2.

Consider DTYIVLAWISKIKGSPDVSASSDE [SMIM2], for which the protein stability index reads like this: under setting [1], 2.42 ± 0.6; under setting [2], 2.41 ± 0.27.

Consider FSGSLEPVACGSVLSEGSPLTEQE [SRPK2], for which the protein stability index runs as follows: under setting [1], 5.23 ± 0.17; under setting [2], 5.46 ± 0.16.

For the sequence QALRENTYPFLAMIMLKDRRMTVV [FAF2], the protein stability index runs as follows: under setting [1], 2.23 ± 0.31; under setting [2], 1.96 ± 0.21.

In the case of LNVATFLDPRYKRLPFLSAFERQQ [ZBED1], the protein stability index is, setting by setting: under setting [1], 2.37 ± 0.086; under setting [2], 2.43 ± 0.42.

Take GPPVGPLSLGLATVDIQNPDITSS [WAS]: the protein stability index is, setting by setting: under setting [1], 4.68 ± 0.23; under setting [2], 4.39 ± 0.24.

For LRLLREEEYVAPPRGPLPTLQVVP [TRAF3IP2], the protein stability index is, setting by setting: under setting [1], 2.96 ± 0.3; under setting [2], 3.23 ± 0.14.

For LGFAYAKEDKIMLDDRKNEEDGGA [MIA2], the protein stability index runs as follows: under setting [1], 4.96 ± 0.13; under setting [2], 5.18 ± 0.2.

In the case of FNMWGFGRVSKQASQPVKKQQENA [WDR41], the protein stability index is 3.12 ± 0.25 under setting [1] and 3.54 ± 0.18 under setting [2].

NDVRQSANYTCVAMSTLGVIEAIA [PTPRD]: the protein stability index is, setting by setting: under setting [1], 2.3 ± 0.34; under setting [2], 2.19 ± 0.3.

For the sequence MALPGARARGWAAAARAAQRRRRV [RSAD1], the protein stability index was 4.64 ± 0.15 under setting [1] and 4.61 ± 0.17 under setting [2].

With VQLIDDFKISGMNGIHVCMVFEVL [SRPK2], the protein stability index amounted to 2.73 ± 0.62 under setting [1] and 2.71 ± 0.32 under setting [2].

Regarding EVVNMAVIVPKEEGVISVSEDRTV [WDFY2], the protein stability index worked out at 4.04 ± 0.42 under setting [1] and 4.22 ± 0.34 under setting [2].

PSVKYLSHPRVQSGCDKEALLTGG [RNF180]: the protein stability index amounted to 3.99 ± 0.28 under setting [1] and 4.04 ± 0.29 under setting [2].

Turning to GRYAYVRGGGDPWTNGSGLALCQR [MCOLN1], the protein stability index under setting [1] is 2.56 ± 0.37 and the protein stability index under setting [2] stood at 3.02 ± 0.2.

For the sequence HQKLEREARICRLLKHSNIVRLHD [CAMK2B], the protein stability index came out at 2.58 ± 0.17 under setting [1] and 2.66 ± 0.43 under setting [2].

As for DITPLMAAANGGHVKIVKLLLAHK [ANKRD17], the protein stability index reads like this: under setting [1], 2.27 ± 0.2; under setting [2], 2.33 ± 0.41.

Take PAICALRHLTSRHQEAEMAQNAVR [CTNNB1]: the protein stability index worked out at 3.2 ± 0.5 under setting [1] and 3.67 ± 0.32 under setting [2].

Consider FFFRHGHRGLLTMQLKSPMPSSTT [SPAG8], for which the protein stability index runs as follows: under setting [1], 2.14 ± 0.26; under setting [2], 2 ± 0.23.

With MAAWGKKHAGKDPVRDECEERNRF [FAM9B], the protein stability index by setting is: under setting [1], 4.59 ± 0.23; under setting [2], 4.62 ± 0.34.

For the sequence GEKEVEALKKSADWVSDWSSRPEN [BNIP3L], the protein stability index by setting is: under setting [1], 4.78 ± 0.27; under setting [2], 4.88 ± 0.39.

As to RAWIPSENIQDITVNIHRLHVKRS [ZMYND11], the protein stability index is 2.55 ± 0.31 under setting [1] and 2.49 ± 0.16 under setting [2].

With GSGAPSPLSKSSPATTVTSPNSTP [SNAP91], the protein stability index runs as follows: under setting [1], 5.44 ± 0.16; under setting [2], 5.4 ± 0.16.

Take INIKGISEAKADKILAEAAKLVPM [RAD51]: the protein stability index was 2.62 ± 0.15 under setting [1] and 2.42 ± 0.15 under setting [2].

As to LVGDSDVGKGEILESLQDGAAESP [RAB40C], the protein stability index runs as follows: under setting [1], 5.35 ± 0.27; under setting [2], 5.39 ± 0.3.

For the sequence QFTKPNASLGDVQSGATISMPCST [SASS6], the protein stability index reads like this: under setting [1], 4.14 ± 0.38; under setting [2], 4.06 ± 0.69.

For the sequence LKNEIQEVEELDNWQPAVPLMHML [SPATS1], the protein stability index by setting is: under setting [1], 2.8 ± 0.45; under setting [2], 3.18 ± 0.38.

MASCAEPSEPSAPLPAGVPPLEDF [FKBP8] registered a protein stability index under setting [1] of 4.97 ± 0.28 and a protein stability index under setting [2] of 5.05 ± 0.14.

For the sequence KLWDPVDGSVVRDFEHRPKAPVVE [WDR88], the protein stability index is, setting by setting: under setting [1], 4.08 ± 0.23; under setting [2], 4.23 ± 0.2.

As to ETSRSHDLEAVVPQNGSETGWARK [ATP23], the protein stability index is, setting by setting: under setting [1], 4.95 ± 0.2; under setting [2], 5.21 ± 0.12.

Regarding SPTSGKFRRGSGSACSLLCCCGRD [MCOLN1], the protein stability index was 3.27 ± 0.15 under setting [1] and 3.56 ± 0.41 under setting [2].

For ARRTTRSEPIRRAGKSGTSTPTTP [MAP2], the protein stability index came out at 4.66 ± 0.12 under setting [1] and 4.8 ± 0.12 under setting [2].

On to CTNSPAIVRFSGQSRGVPAVSESY [FBXO34], for which the protein stability index reads like this: under setting [1], 3.21 ± 0.46; under setting [2], 3.14 ± 0.45.

VARCEVMAAMFNGNYMEAKSVLIP [RHOBTB3]: the protein stability index is 2.16 ± 0.29 under setting [1] and 2.24 ± 0.17 under setting [2].

With LKQLLTETDVWFSKQRKDFEGMAF [GMCL1], the protein stability index is 2.7 ± 0.48 under setting [1] and 2.52 ± 0.19 under setting [2].

As for SIYLVGGYSWSMGAYKSSTICYCP [KLHL14], the protein stability index reads like this: under setting [1], 2.87 ± 0.46; under setting [2], 2.53 ± 0.87.

Sequence DIVDEDVKLMMSTLPKSLSLPTTA [MYBL2] registered a protein stability index under setting [1] of 3.9 ± 0.27 and a protein stability index under setting [2] of 3.7 ± 0.27.

On to GRREGCDICAGKAGCPIVEEPLG [RPS21], for which the protein stability index was 4.03 ± 0.13 under setting [3] and 4.33 ± 0.3 under setting [4].

Turning to NKKHGEAEKKKPKTQIVCKHFLEA [ZC3H15], the protein stability index under setting [1] worked out at 4.09 ± 0.32 and the protein stability index under setting [2] is 4.14 ± 0.31.

With RLRGLLRVLRGRPGAGSRRRGRMA [FBXO33], the protein stability index is, setting by setting: under setting [1], 2.6 ± 0.61; under setting [2], 3.14 ± 0.69.

On to TSSCPNVSERSFDNVRSLKVESGA [CRYBA1], for which the protein stability index under setting [1] came to 5 ± 0.44 and the protein stability index under setting [2] is 4.63 ± 0.2.

Take VRTLEGVFQHHQYLSPLERKRLAR [VENTX]: the protein stability index under setting [1] worked out at 3.23 ± 0.23 and the protein stability index under setting [2] was found to be 3.54 ± 0.47.

For VNQPNNNGFTPLHFAAASTHGALC [ANKRD44], the protein stability index is, setting by setting: under setting [1], 2.99 ± 0.3; under setting [2], 3.06 ± 0.33.

As for SNLIRHQRIHAAERLCMGVDCTEI [ZNF263], the protein stability index reads like this: under setting [1], 3.17 ± 0.2; under setting [2], 3.18 ± 0.21.

As to MHDMLLEELAPVGTAHIPPTMHLE [ZNF449], the protein stability index by setting is: under setting [1], 3.71 ± 0.32; under setting [2], 3.64 ± 0.12.

For the sequence FLLSVYAPGSSVEYQCQNLYQLEG [CFHR2], the protein stability index under setting [1] stood at 2.75 ± 0.48 and the protein stability index under setting [2] was found to be 2.52 ± 0.44.

Regarding KRKEEECSTTDHPYKKPYMETSPS [TBX5], the protein stability index amounted to 5.09 ± 0.22 under setting [1] and 5.02 ± 0.18 under setting [2].

For the sequence EEIKTWGTVFQELNKLYPTHACRE [TPH1], the protein stability index was 2.95 ± 0.23 under setting [1] and 3.02 ± 0.28 under setting [2].

Regarding PGESLECPAELRPQVPQPPSPAAV [TRAF3IP2], the protein stability index by setting is: under setting [1], 5.31 ± 0.077; under setting [2], 5.18 ± 0.43.

Take GTDSAGPKTVPSHVFSELWDLSEA [ELOA2]: the protein stability index is, setting by setting: under setting [1], 3.95 ± 0.25; under setting [2], 4.39 ± 0.38.

With FRLTTLLMSGCSSELKNRMEYALN [PLK2], the protein stability index worked out at 2.46 ± 0.53 under setting [1] and 2.35 ± 0.47 under setting [2].

For the sequence LNGLQHLKAKKVWYDMFRDAAAIL [ZMAT5], the protein stability index amounted to 2.63 ± 0.56 under setting [1] and 2.49 ± 0.34 under setting [2].

Turning to IGQVHEEFKQNIENVSVEMLLRKF [FCHO1], the protein stability index runs as follows: under setting [1], 3.05 ± 0.3; under setting [2], 3.32 ± 0.23.

Consider SILKAMGKTKKDYQEASNLEQFVT [NECAB1], for which the protein stability index is, setting by setting: under setting [1], 2.89 ± 0.41; under setting [2], 3.04 ± 0.33.

Consider ELNKQVVSSSEQLQSCQAEIIELR [KRT34], for which the protein stability index came out at 3.82 ± 0.33 under setting [1] and 4.04 ± 0.53 under setting [2].

Take AFPYQYPPPPHPYNPHPGFPELGY [DVL3]: the protein stability index reads like this: under setting [1], 2.35 ± 0.31; under setting [2], 2.5 ± 0.35.

Regarding VVKVISTIPATLLVDHVGSKTFLC [SLC2A12], the protein stability index came to 2.95 ± 0.43 under setting [1] and 2.75 ± 0.37 under setting [2].

For the sequence ATFNCLNKRLAKYRMRNVHPKPKL [CLCN6], the protein stability index reads like this: under setting [1], 2.56 ± 0.15; under setting [2], 2.8 ± 0.27.

Regarding DGIDPFPLLMNRQRVPKVLVENAK [EFHC1], the protein stability index by setting is: under setting [1], 3.77 ± 0.24; under setting [2], 3.97 ± 0.22.

Consider PKSLVRLSLEAVICFKEMLANSWN [KLHDC2], for which the protein stability index under setting [1] stood at 2.41 ± 0.65 and the protein stability index under setting [2] was 2.49 ± 0.3.

Consider LHFIATNYLIFSQKPEFQDLSVEE [RHOBTB3], for which the protein stability index is, setting by setting: under setting [1], 2.5 ± 0.77; under setting [2], 2.15 ± 0.38.

NQAGYFMLPTVITDIKDESCCMTE [ALDH8A1]: the protein stability index by setting is: under setting [1], 3.5 ± 0.13; under setting [2], 3.71 ± 0.43.

Consider AWFLPMPQKSLFFHHIPSTCQRVN [SLC19A2], for which the protein stability index reads like this: under setting [1], 2.29 ± 0.48; under setting [2], 2.23 ± 0.075.

In the case of QDDHDHKVQELMSTHELEKKELEE [MTUS2], the protein stability index by setting is: under setting [1], 5.59 ± 0.29; under setting [2], 5.59 ± 0.33.
